This assay concerns the target T1, glycosylated synapsin I from olfactory bulb lysate (rat, UniProt P09951 1-704, limits assumed, Fucα(1-2)Gal glycosylated (sites not given)).
T1 construct: Endogenous protein in tissue lysate, detected by Western blot with mouse anti-synapsin I ascites
In words: lectin affinity chromatography on UEAI-agarose, elution with 200 mM L-fucose, Western blot for synapsin I. Background: In western blotting, separated proteins are transferred to a membrane and probed.

B1: UEAI lectin conjugated to agarose (Vector Laboratories) (other, UniProt P22972 1-243, looked up)
chain: SDDLSFKFKNFSQNGKDLSFQGDASVIETGVLQLNKVGNNLPDETGGIARYIAPIHIWNCNTGEVASFITSFSFFMETSANPKAATDGLTFFLAPPDSPLRRAGGYFGLFEDTKDNDSSYQTVAVEFDTIGSPVNFDDPGFPHIGIDVNRVKSINAERWNKRYGLNNVANVEIIYEASSKTLTASLTYPSDQTSISVTSIVDLKEILPEWVSVGFSGGTYIGRQATHEVLNWYFTSNLINTNS
modifications: conjugated to agarose
For B1, the binding result is on record as “no binding (tested: 500 µg lysate)”.

Values taken from patent US20140323699A1 (CALIFORNIA INSTITUTE OF TECHNOLOGY, published 2014).
